Source: PMC7995614, “Arabidopsis thaliana 3-mercaptopyruvate sulfurtransferases interact with and are protected by reducing systems” (The Journal of Biological Chemistry, 2021)
Where a chain is given by its changes, count along the chain named.

Key:
Cys = conditions: cited from earlier work
Cys298 = Cys298 (UniProt position 298, PIAASCGTGVT); assay: chemical modification (H2O2 inactivation) with activity readout; conditions: Not stated for the pH pre-incubation. The activity assay was at 25 °C.; Not stated (100 mM buffers); 100 mM sodium citrate, MES, phosphate or borate buffers for the pre-incubation. Activity assay in 30 mM Tris-HCl pH 8.0.; Reduced enzyme (DTT-reduced and desalted), 2 uM, no substrate during the 3 min pre-incubation
STR2 [1] = target: T1, STR2 (Arabidopsis thaliana, UniProt Q24JL3); assay: intrinsic tryptophan fluorescence quenching; format: binding
T1 construct: untagged, pET12a; E. coli BL21(DE3)
T1 sequence (Q24JL3 1-342 limits assumed): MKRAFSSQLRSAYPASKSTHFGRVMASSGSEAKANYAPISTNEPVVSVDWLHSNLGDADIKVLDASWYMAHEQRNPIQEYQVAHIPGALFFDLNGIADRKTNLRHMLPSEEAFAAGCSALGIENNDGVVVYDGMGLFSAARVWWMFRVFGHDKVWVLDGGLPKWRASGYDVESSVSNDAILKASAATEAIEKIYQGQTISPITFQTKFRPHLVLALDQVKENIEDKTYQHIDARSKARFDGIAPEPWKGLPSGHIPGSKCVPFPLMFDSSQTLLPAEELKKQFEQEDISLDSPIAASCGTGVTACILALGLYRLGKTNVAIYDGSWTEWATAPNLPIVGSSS

STR1 [2] = target: T2, STR1 (Arabidopsis thaliana, UniProt O64530); assay: intrinsic tryptophan fluorescence quenching; format: binding
T2 construct: untagged (pET28a) or C-terminal His tag (used for Cys variants); E. coli BL21(DE3)
T2 sequence (O64530 57-379): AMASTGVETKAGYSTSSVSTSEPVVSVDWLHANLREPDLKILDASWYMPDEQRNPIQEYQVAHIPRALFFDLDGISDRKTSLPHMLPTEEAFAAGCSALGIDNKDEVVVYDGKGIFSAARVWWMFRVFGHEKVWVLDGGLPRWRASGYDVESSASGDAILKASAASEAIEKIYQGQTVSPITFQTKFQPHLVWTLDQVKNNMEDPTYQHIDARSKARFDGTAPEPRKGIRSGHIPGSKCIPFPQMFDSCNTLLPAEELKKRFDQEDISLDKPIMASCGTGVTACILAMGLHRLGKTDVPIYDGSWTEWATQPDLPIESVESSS

STR2 [3] = target: T3, STR2 (Arabidopsis thaliana, UniProt Q24JL3, C298S); assay: intrinsic tryptophan fluorescence quenching; format: binding; conditions: 2 μM protein, 100-fold excess 3-MP, pH 8.0; catalytic Cys variant
T3 construct: untagged, pET12a; E. coli BL21(DE3)
T3 sequence (Q24JL3 1-342 C298S limits assumed): T1 sequence (Q24JL3 1-342 limits assumed) with C298S

STR1 [4] = target: T4, STR1 (Arabidopsis thaliana, UniProt O64530, C333S); assay: intrinsic tryptophan fluorescence quenching; format: binding; conditions: 2 μM protein, 100-fold excess 3-MP, pH 8.0; catalytic Cys variant
T4 construct: untagged (pET28a) or C-terminal His tag (used for Cys variants); E. coli BL21(DE3)
T4 sequence (O64530 57-379 C333S): T2 sequence (O64530 57-379) with C277S

Cys333 = Cys333 (UniProt position 333, PIMASCGTGVT); assay: chemical modification (H2O2 inactivation) with activity readout; conditions: Not stated for the pH pre-incubation. The activity assay was at 25 °C.; Not stated (100 mM buffers); 100 mM sodium citrate, MES, phosphate or borate buffers for the pre-incubation. Activity assay in 30 mM Tris-HCl pH 8.0.; Reduced enzyme (DTT-reduced and desalted), 2 uM, no substrate during the 3 min pre-incubation
[5] = substrate: N[C@@H](CS)C(=O)O; assay: H2S release, methylene blue assay; format: biochemical, Arabidopsis thaliana; conditions: apparent, sulfur acceptor, 250 μM 3-MP, pH 8.0, 25 °C
Description: (§1) H2S release, methylene blue assay on STR2

[6] = substrate: O=C(O)C(=O)CS; assay: H2S release, methylene blue assay; format: biochemical, Arabidopsis thaliana; conditions: apparent, sulfur donor, acceptor 10 μM TRXh1 with NADPH and NTRB, pH 8.0, 25 °C
Description: as §1

[7] = substrate: N[C@@H](CS)C(=O)O; assay: H2S release, methylene blue assay; format: biochemical, Arabidopsis thaliana; conditions: apparent, sulfur acceptor, 250 μM 3-MP, pH 8.0, 25 °C; remark: listed apart in the source
Description: (§2) H2S release, methylene blue assay on STR1

[8] = substrate: O=C(O)C(=O)CS; assay: H2S release, methylene blue assay; format: biochemical, Arabidopsis thaliana; conditions: apparent, sulfur donor, acceptor 30 μM TRXo1 with NADPH and NTRB, pH 8.0, 25 °C
Description: as §2

3-mercaptopyruvate sulfurtransferase (human MST) (Homo sapiens)
pKa (Cys): 5.2 ± 0.1

Sulfurtransferase 2 (STR2), cytosolic 3-mercaptopyruvate sulfurtransferase (Arabidopsis thaliana)
pKa (Cys298): 4.0 ± 0.1

O=C(O)C(=O)CS [3-MP]
Kd (STR2 [1]): 0.7 ± 0.3 µM | Kd (STR1 [2]): 1.3 ± 0.9 µM | intrinsic tryptophan fluorescence quenching (STR2 [3]): intrinsic fluorescence of both variants also decreased after addition of 3-MP | intrinsic tryptophan fluorescence quenching (STR1 [4]): intrinsic fluorescence of both variants also decreased after addition of 3-MP

Sulfurtransferase 1 (STR1), mitochondrial 3-mercaptopyruvate sulfurtransferase (Arabidopsis thaliana)
pKa (Cys333): 3.8 ± 0.1

B1: STR2 (Arabidopsis thaliana) (protein)
chain: T1 sequence (Q24JL3 1-342 limits assumed)
notes: untagged, pET12a; E. coli BL21(DE3)
Km [5]: 1300 ± 70 µM | kcat [5]: 1.5 s⁻¹ | Km [6]: 377 ± 15 µM | kcat [6]: 9.7 s⁻¹

B2: STR1 (Arabidopsis thaliana) (protein)
chain: T2 sequence (O64530 57-379)
notes: untagged (pET28a) or C-terminal His tag (used for Cys variants); E. coli BL21(DE3)
Km [7]: 2200 ± 400 µM | kcat [7]: 3.9 s⁻¹ | kcat/Km [7]: 1700 M⁻¹ s⁻¹ | Km [8]: 286 ± 5 µM | kcat [8]: 13.5 s⁻¹ | kcat/Km [8]: 47000 M⁻¹ s⁻¹
